In patent publication US20240075137A1 (COMPUGEN, published 2024):
Where two headings read alike, the source gives them in different places.

T1: cynomolgus PVRIG on cells (cynomolgus, UniProt A0A2K5WVV8 41-322)
T1 construct: whole, on cells; also called cPVRIG; expi cPVRIG cells
T1 sequence: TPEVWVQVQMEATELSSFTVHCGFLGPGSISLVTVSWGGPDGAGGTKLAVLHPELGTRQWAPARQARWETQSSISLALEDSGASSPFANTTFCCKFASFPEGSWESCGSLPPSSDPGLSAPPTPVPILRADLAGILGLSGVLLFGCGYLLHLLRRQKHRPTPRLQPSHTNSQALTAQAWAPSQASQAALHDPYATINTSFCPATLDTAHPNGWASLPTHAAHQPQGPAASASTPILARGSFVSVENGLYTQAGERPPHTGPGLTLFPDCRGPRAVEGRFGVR

T2: human PVRIG on cells (human, UniProt Q6DKI7 1-326)
T2 construct: whole, on cells; over-expressed on HEK cells or endogenous on Jurkat and CD8 T cells; also called hPVRIG; HEK hPVRIG cells
T2 sequence (looked up): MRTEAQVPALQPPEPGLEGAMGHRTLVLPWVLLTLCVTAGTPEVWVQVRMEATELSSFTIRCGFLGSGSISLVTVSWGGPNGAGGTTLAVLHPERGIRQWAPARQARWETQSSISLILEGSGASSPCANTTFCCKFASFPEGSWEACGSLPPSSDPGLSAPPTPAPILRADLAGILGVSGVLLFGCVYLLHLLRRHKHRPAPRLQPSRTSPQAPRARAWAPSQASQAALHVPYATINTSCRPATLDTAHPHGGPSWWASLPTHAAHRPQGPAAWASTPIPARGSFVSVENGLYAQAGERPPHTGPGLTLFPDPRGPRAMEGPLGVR

T3: PVRIG (FACS-based competition assay of FIGS. 7 and 15) (Homo sapiens, UniProt Q6DKI7)
T3 construct: made because the format of the assay is only described in U.S. Ser. No. 15/048,967; also called human PVRIG
T3 sequence (receptor, looked up): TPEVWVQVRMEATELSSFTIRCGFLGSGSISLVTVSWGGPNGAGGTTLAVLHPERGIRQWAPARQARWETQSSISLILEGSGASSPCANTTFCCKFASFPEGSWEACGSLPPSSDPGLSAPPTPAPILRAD


Experiments:
[1] = target: T1, cynomolgus PVRIG on cells; test: FACS, cyno PBMC, NK cells, 10ug/ml
human PVRIG on cells [2] = target: T2, human PVRIG on cells; test: FACS, human PBMC, CD56 int. NK cells, 10ug/ml
human PVRIG on cells [3] = target: T2, human PVRIG on cells; test: FACS, HEK hPVRIG cells (HEK OE)
human PVRIG on cells [4] = target: T2, human PVRIG on cells; test: FACS, human PBMC, CD8+ T cells, 10ug/ml
human PVRIG on cells [5] = target: T2, human PVRIG on cells; test: FACS, human PBMC, CD8+ T cells, 10ug/ml; remark: listed apart in the source
human PVRIG on cells [6] = target: T2, human PVRIG on cells; test: FACS, human PBMC, CD56 int. NK cells, 10ug/ml; remark: listed apart in the source
human PVRIG on cells [7] = target: T2, human PVRIG on cells; test: FACS, HEK hPVRIG over HEK parental cells, 3.3ug/ml
[8] = target: T1, cynomolgus PVRIG on cells; test: FACS, expi cPVRIG over expi parental cells, 3.3ug/ml
[9] = target: T3, PVRIG (FACS-based competition assay of …); test: FACS-based competition assay of PVRIG blocking; format and competitor not given
[10] = target: T1, cynomolgus PVRIG on cells; test: FACS, expi cPVRIG over expi parental cells, 3.3ug/ml; remark: listed apart in the source
[11] = target: T1, cynomolgus PVRIG on cells; test: FACS, cyno PBMC, CD8+ T cells, 10ug/ml
[12] = target: T1, cynomolgus PVRIG on cells; test: FACS, cyno PBMC, CD8+ T cells, 10ug/ml; remark: listed apart in the source
human PVRIG on cells [13] = target: T2, human PVRIG on cells; test: FACS, Jurkat cells, relative to control, 3.3ug/ml
[14] = target: T1, cynomolgus PVRIG on cells; test: FACS, cyno PBMC, NK cells, 10ug/ml; remark: listed apart in the source
[15] = target: T3, PVRIG (FACS-based competition assay of …); test: FACS-based competition assay of PVRIG blocking; format and competitor not given; remark: listed apart in the source
human PVRIG on cells [16] = target: T2, human PVRIG on cells; test: FACS, Jurkat cells, relative to control, 3.3ug/ml; remark: listed apart in the source
human PVRIG on cells [17] = target: T2, human PVRIG on cells; test: FACS, HEK hPVRIG over HEK parental cells, 3.3ug/ml; remark: listed apart in the source
human PVRIG on cells [18] = target: T2, human PVRIG on cells; test: FACS, HEK hPVRIG cells (HEK OE); remark: listed apart in the source
[19] = target: T3, PVRIG (FACS-based competition assay of …); test: FACS-based competition assay of PVRIG blocking; format and competitor not given; remark: listed apart in the source

Binder | gMFIr Cyno NK cells [1] | gMFIr Human CD56 int. NK (human PVRIG on cells [2]) | EC50 (human PVRIG on cells [3]) [nM] | gMFIr Human CD8+ T cells (human PVRIG on cells [4]) | gMFIr Human CD8+ T cells (human PVRIG on cells [5]) | gMFIr Human CD56 int. NK (human PVRIG on cells [6]) | gMFIr HEK OE/par (human PVRIG on cells [7]) | gMFIr Expi cyno OE/par [8] | IC50 [9] [nM] | gMFIr Expi cyno OE/par [10] | gMFIr Cyno CD8+ T cells [11] | gMFIr Cyno CD8+ T cells [12] | gMFIr Jurkat (human PVRIG on cells [13]) | gMFIr Cyno NK cells [14] | IC50 [15] [nM] | gMFIr Jurkat (human PVRIG on cells [16]) | gMFIr HEK OE/par (human PVRIG on cells [17]) | EC50 (human PVRIG on cells [18]) [nM] | IC50 [19] [nM]
CHA.7.530 (antibody, V domains shown) VH: QVQLQQSGAELMRPGTSVKVSCKASGYAFTNHLIEWIKQRPGQGLEWIGVINPGSDSTDYNEKFKDKATLTADKSSSTAYMQLSSLTSDDSAVYFCARSLYYNSWFVYWGQGTLVTVSA VL: DIQMTQSPASLSASVGETVTITCRASENIYSYLAWYQQKRGKSPQLLVYNAKTLVEGVPSRFSGSGSGTQFSLKINSLQPEDFGSYYCQHHYGTPYTFGGGTKLEIK | 1.73 | 6.04 | 0.33 | 6.47 | 6.47 | 6.04 | 51.1 | 60.8 | 34.6 | 60.8 | 1.89 | 1.89 | 8.04 | 1.73 | 34.6 | – | – | – | –
CHA.7.528 (antibody, V domains shown) VH: EVQVQQSGPELVKPGASVKISCKASGYTFTKSNMHWVKQSHGKSLEWIGYIYPYNGGTGYNQNFKSKATLTVDISSSTAYMELRSLTLEDSAVYLCAREADYYGNRGQFDYWGQGTLVTVSA VL: DIQMTQSPASLSVSVGETVTITCRASDNIFSNLAWYHQKQGKSPHLLVYGATNLADGVPSRFSGSGSGTQYSLKINSLQSEDFGDYYCQHFWGTPYTFGGGTKLEIK | 1.21 | 3.08 | 7.31 | 3.63 | 3.63 | 3.08 | 44.9 | 12.2 | 28.9 | 12.2 | 1.18 | 1.18 | 6.17 | 1.21 | 28.9 | – | – | – | –
CHA.7.543 (antibody, V domains shown) VH: QVQLKESGPGLVAPSQSLSITCTVSGFSLSGYGIKWVRQPPGKGLEWLGTIWGDGSTDYNSALKSRLSISKDNSKSQVFLKMTSLQTDDTARYYCASDSLGITFGYWGQGTLVTVSA VL: DIQMTQTTSSLSASLGDRVTISCRASQDISNYLNWYQQKPDGTVKLLIYYTSRLHSGVPSRFSGSGSGTDYSLTISNLEQEDIATYFCQQGNTLPLTFGAGTKLELK | 1.35 | 4.48 | – | 4.33 | 4.33 | 4.48 | – | 0.83 | – | 0.83 | 1.39 | 1.39 | – | 1.35 | – | 6.73 | 49.8 | 0.52 | –
CHA.7.537 (antibody, V domains shown) VH: QVQLKESGPGLVAPSQSLSITCTVSGFSLIGHGVNWIRQPPGKGLEWLGVIWGDGNTDYNSALKSRLSISKDNSKSQVFLKMNSLQTDDTARYFCAVNSAMDYWGQGTAVTVSS VL: NIVMTQSPKSMSMSVGERVTLNCTASENVASFVSWYQQKPEQSPKLLIYGTSNRYTGVPDRFTGSGSATDFTLTISSVQAEDLGDYHCGQSYNYPFTFGSGTKLEIE | 1.18 | 3.9 | 2.47 | 3.41 | 3.41 | 3.9 | 36.6 | 1.55 | 39 | 1.55 | 1.19 | 1.19 | 5.53 | 1.18 | 39 | – | – | – | –
CHA.7.545 (antibody, V domains shown) VH: QIQLVQSGPDLKKPGETVKISCKASGYTFTTYGMSWVKQAPGRGLKWMGWINTYSGVSTFPDDFKGRFAFSLETSASTAYLQINNLKNEDSATYFCARLGMGSTTGAGYFDVWGTGTTVTVSS VL: DIVLTQSPAIMSASPGEKVTMTCSASSSVSSWYLHWYQQKSGASPKLWIYGTSNLASGVPARFSGSGSGTSYSLTISSVEAEDAATYYCQQYRSDPYTFGSGTKLEIK | – | 2.54 | – | 2.82 | 2.82 | 2.54 | – | 0.91 | – | 0.91 | – | – | – | – | 96.1 | 6.53 | 44.3 | 0.76 | 96.1
CHA.7.547 (antibody, V domains shown) VH: QIQLVQSGPDLKKPGETVKISCKASGYTFTTYGMSWVKQAPGRGLKWMGWINTYSGVSTFPDDFKGRFAFSLETSASTAYLQINNLKNEDSATYFCARLGMGSTTGAGYFDVWGTGTTVTVSS VL: ENVLTQSPAIMSASLGEKVTLSCRASSSVNYMYWYQQKSDASPKLWIYYTSNLAPGVPARFSGSGSGNSYSLTISSVEGEDAATYYCQQFTSSPWTFGGGTKLEIK | – | 2.21 | – | 1.13 | 1.13 | 2.21 | – | 26.6 | – | 26.6 | – | – | – | – | 27.9 | 1.02 | 10.9 | 14.4 | 27.9
CHA.7.546 (antibody, V domains shown) VH: QIQLVQSGPELKKPGETVKISCKASGYTFTTYGMSWVKQAPGKGLKWMGWINTYSGVSTYADDFEGRFAFSLETSVSTAYLQINNLKNEDTATYFCARLGRGSTTGAGYLDVWGTGTTVTVSS VL: DIVLTQSPAIMSASPGEKVSMTCSASSSVSSWYLHWYQQKSGASPKLWIYGTSNLASGVPARFSGSGSGTSYSLTISSVEAEDAATYYCQQYHSDPYTFGSGTKLEIK | – | 2.75 | – | 2.95 | 2.95 | 2.75 | – | 0.85 | – | 0.85 | – | – | – | – | 92 | 6.42 | 43.1 | 0.61 | 92
